Experimental data reported in the supplement of paper PMC9732359.
± gives the uncertainty stated by the source.

Experiment: protein stability index of a GFP-peptide fusion (yeast GPS) (PSI 1-4); higher = more stable; sorted into four equal gates, so the index is relative within each strain
Outline: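 Tiled 17-residue yeast protein peptides were fused downstream of GFP in a plasmid that also expresses Cherry, and the pooled library was carried in yeast. Mid-log cultures in leucine-free medium were sorted into four equal gates by GFP/Cherry fluorescence ratio, and plasmids from each gate were PCR-amplified and Illumina-sequenced, with reads assigned to strains by barcodes. The protein stability index for each peptide was each gate's read frequency times its gate number, summed.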

| Sequence | protein stability index (doa10∆) | protein stability index (pdr5∆) | protein stability index (san1∆) | protein stability index (ubr1∆) |
| --- | --- | --- | --- | --- |
| VQDLGSAISVTNVEDPL [SIR2] | 2.34 ± 0.069 | 1.97 ± 0.064 | 2.47 ± 0.13 | 2.21 ± 0.054 |
| WTEASSSGAGTVKLYLP [ECM29] | 2.05 ± 0.052 | 1.82 ± 0.047 | 2.09 ± 0.067 | 2.02 ± 0.05 |
| KCSATNRIIKADDHASV [RPS21A] | 2.92 ± 0.053 | 2.96 ± 0.053 | 3.13 ± 0.049 | 3.11 ± 0.039 |
| VNGRTKSNTIPVTSIPS [GAL11] | 2.9 ± 0.072 | 2.87 ± 0.11 | 2.99 ± 0.077 | 2.95 ± 0.079 |
| SRQVQKRPRSRTLTAVH [RPS7A] | 2.54 ± 0.035 | 2.33 ± 0.034 | 2.41 ± 0.037 | 2.03 ± 0.032 |
| RTKSQVIEEDYDDEQNT [IRR1] | 2.4 ± 0.071 | 2.83 ± 0.15 | 2.38 ± 0.099 | 1.83 ± 0.16 |
| NEYPVADAVTKDLKLRR [REC8] | 3.08 ± 0.1 | 3.23 ± 0.095 | 3.28 ± 0.038 | 3.23 ± 0.041 |
| VKTTLVSLTQLRCVKYL [RPC82] | 1.4 ± 0.13 | 1.27 ± 0.079 | 1.16 ± 0.25 | 1.37 ± 0.11 |
| SAEEQLRKIDMLQKKLV [SRB7] | 2.64 ± 0.09 | 2.58 ± 0.065 | 1.88 ± 0.097 | 2.62 ± 0.043 |
| HPIRVLMASVILDSLPS [YDL116W/NUP84] | 1.7 ± 0.051 | 1.52 ± 0.042 | 1.62 ± 0.056 | 1.62 ± 0.048 |
| VLSTFTAEFGKILAGLH [RPN10] | 3.11 ± 0.14 | 3.44 ± 0.15 | 3.1 ± 0.14 | 3.05 ± 0.11 |
| IHLQRFDEGTTLLSPKD [RPO21] | 2.94 ± 0.14 | 2.57 ± 0.14 | 2.91 ± 0.16 | 2.98 ± 0.2 |
| PLRMETIPILESDSKAT [DSN1] | 2.14 ± 0.062 | 2.54 ± 0.084 | 2.59 ± 0.14 | 2.27 ± 0.044 |
| CGLMTVIAKLNHNQFEC [RPB2] | 2.33 ± 0.09 | 2.35 ± 0.078 | 1.5 ± 0.12 | 1.7 ± 0.15 |
| VRSANEDGTFSVLYPDE [RRP43] | 3.13 ± 0.088 | 3.02 ± 0.088 | 3.18 ± 0.06 | 3.28 ± 0.1 |
| LHQYYGDDESKIPAVEY [FAS1] |  | 2.75 ± 0.21 | 2.96 ± 0.19 |  |
| KNAGLGFKTPKTAIEGS [RPS11A] | 3.01 ± 0.047 | 3.12 ± 0.055 | 3.11 ± 0.035 | 3.13 ± 0.041 |
| IGLIALSATGTRSAKKM [YJR042W/NUP85] |  |  | 3 ± 0.15 |  |
| ITSFDQDVDDAHAIDQM [POP8] | 1.55 ± 0.064 | 1.23 ± 0.061 | 1.15 ± 0.093 | 1.08 ± 0.11 |
| FEKKLSIIKAKLPLLNE [YML103C/NUP188] | 2.34 ± 0.095 | 1.98 ± 0.13 | 1.85 ± 0.23 | 1.69 ± 0.068 |
| LASPEVKVHMDSETSDP [DIS3] | 3.09 ± 0.082 | 3.38 ± 0.071 | 3.03 ± 0.071 | 3.12 ± 0.051 |
| TEHSKVTRFDEKQIEEL [SRB6] | 3.2 ± 0.14 | 3.26 ± 0.086 | 3.11 ± 0.081 | 3.26 ± 0.07 |
| ILQIREEIPSKSWDDSV [RRP6] | 2.27 ± 0.078 | 2.76 ± 0.092 | 2.32 ± 0.084 | 2.7 ± 0.055 |
| YFRILLPYERHMISQEG [SWI1] | 1.37 ± 0.052 | 1.54 ± 0.047 | 1.5 ± 0.097 | 1.6 ± 0.045 |
| LLKLERKKTEAVARLKS [SNF2] | 1.89 ± 0.068 | 2.14 ± 0.083 | 2.06 ± 0.091 | 1.97 ± 0.061 |
| YLCFILSTRAGGLGLNL [SNF2] | 2.32 ± 0.08 | 2.04 ± 0.095 | 2.19 ± 0.12 | 2.6 ± 0.11 |

| Sequence | protein stability index (doa10∆) | protein stability index (pdr5∆) | protein stability index (san1∆) | protein stability index (ubr1∆) |
| --- | --- | --- | --- | --- |
| NKVSNTVSPTQDKDAIR [SIR2] | 2.98 ± 0.052 | 3.26 ± 0.07 | 3.17 ± 0.056 | 3.11 ± 0.054 |
| RRTNTPIGRDGKLAKPR [RPB2] | 3.08 ± 0.1 | 3.06 ± 0.078 | 2.76 ± 0.084 | 2.96 ± 0.1 |
| SIRAEAVAASSTKTGTP [POP1] | 3.48 ± 0.15 | 3.21 ± 0.1 | 3.08 ± 0.077 | 2.9 ± 0.069 |
| ILKKSLMTSHTKGDTSK [RTT102] | 2.6 ± 0.11 | 3.05 ± 0.085 | 2.81 ± 0.085 | 3.05 ± 0.13 |
| SYHNGNLKGRPYTGWVD [FAS2] | 2.07 ± 0.096 | 3.13 ± 0.1 | 3.08 ± 0.1 | 2.83 ± 0.094 |
| VEEKPGDRGALARASGN [RPL2A] | 2.95 ± 0.12 | 3.23 ± 0.13 | 3.37 ± 0.092 | 3.13 ± 0.11 |
| KKNIQKAKSNQTQREKA [IRR1] | 2.59 ± 0.099 | 2.65 ± 0.11 | 2.77 ± 0.11 | 2.73 ± 0.066 |
| QNDILQESFINTMSAWV [FAS2] | 2.14 ± 0.089 | 2.54 ± 0.19 | 2.55 ± 0.074 | 2.28 ± 0.086 |
| TAFKATVFFLIRVAETR [YJL039C/NUP192] | 1.53 ± 0.087 | 1.22 ± 0.063 | 1.12 ± 0.12 | 1.47 ± 0.048 |
| MIQKVMEYLKSSKSLDL [RPN5] | 2.6 ± 0.051 | 1.55 ± 0.039 | 2.3 ± 0.057 | 2.46 ± 0.05 |
| PLSESLRLVDDDENNPS [RRP6] | 3.15 ± 0.11 | 3.12 ± 0.096 | 2.98 ± 0.084 | 3.08 ± 0.084 |
| KSLEVVNADTVGKTVKQ [NSL1] | 3.13 ± 0.059 | 2.99 ± 0.049 | 2.77 ± 0.051 | 3.08 ± 0.047 |
| DAGVTFNKEQLNKFKKA [ECM29] | 1.83 ± 0.053 | 2.13 ± 0.11 | 1.55 ± 0.14 | 2.36 ± 0.059 |
| TFGTKHAADSQNNKPSF [YLR335W/NUP2] | 3.16 ± 0.22 |  | 3.18 ± 0.17 | 3.05 ± 0.2 |
| LALETVLIKMVKMLRDN [SIR3] | 2.26 ± 0.11 | 2.06 ± 0.074 | 2.08 ± 0.079 | 1.77 ± 0.092 |
| SPYERRLIDLIRNSGEK [RPL36A] | 1.86 ± 0.093 | 1.89 ± 0.098 | 1.68 ± 0.16 | 1.89 ± 0.086 |
| MAGSQFENGNITGEDEV [RRP45] | 3.02 ± 0.095 | 3.08 ± 0.1 | 3.13 ± 0.13 | 2.95 ± 0.09 |
| QFSESTHNDIDSTAVAL [YJL039C/NUP192] | 2.76 ± 0.098 | 2.5 ± 0.2 | 2.71 ± 0.087 | 3.16 ± 0.071 |
| AIPNSIIKRSNGQSLSP [YMR153W/NUP53] | 2.14 ± 0.12 | 2.68 ± 0.049 | 2.71 ± 0.061 | 2.69 ± 0.037 |
| LEWNMANLLFKKEKLKQ [RPC82] | 2.13 ± 0.11 | 1.45 ± 0.049 | 1.38 ± 0.13 | 1.37 ± 0.082 |
| QREEAKKVVKKAFEERH [RPL27A] |  | 3.78 ± 0.2 | 2.63 ± 0.29 |  |
| MSREGFQIPTNLDAAAA [RPC10] | 1.28 ± 0.1 | 1.08 ± 0.082 | 1.35 ± 0.16 | 1.16 ± 0.2 |
| DALEMQWRYLYDTQLKV [ARP7] | 1.75 ± 0.053 | 1.55 ± 0.046 | 1.41 ± 0.088 | 1.53 ± 0.05 |
| DPFSIYGFSNKEYISRL [SNF5] | 1.89 ± 0.066 | 2.39 ± 0.15 | 2.69 ± 0.071 | 2.34 ± 0.075 |
| ILARNDEEMAVLTRMDE [SNF2] | 3.04 ± 0.071 | 2.87 ± 0.079 | 2.37 ± 0.084 | 3.15 ± 0.047 |
| SEHFLYLAKELNLTGPK [RPN1] | 2.98 ± 0.13 | 2.81 ± 0.15 | 2.35 ± 0.19 | 2.98 ± 0.29 |
